Measured values from patent publication US20260167720A1 (Amgen, published 2026).

B1: MSLN-CDH3 T-cell engager molecule 5 (example to FIG. 2D) (bispecific antibody, human IgG1, kappa, N297G)
chain 1: not shown
chain 2: EVQLVESGGGLVQPGGSLKLSCAASGFTFNKYAMNWVRQAPGKGMEWVARIRSKYNNYATYYADAVKDRFTISRDDSKNTLYLQMNNLKTEDTAVYYCVRAGNFGSSYISYFAYWGQGTLVTVSSGGGGQGGGGQGGGGQQTVVTQEPSLTVSPGGTVTITCGSSTGAVTSGNYPNWIQKKPGQAPRGLIGGTKFLAPGTPARFSGSLEGGKAALTLSGVQPEDEAEYYCVLYYSNRWVFGSGTKLTVLGGGGGDKTHTCPPCPAPELLGGPSVFLFPPKPKDTLMISRTPEVTCVVVDVSHEDPEVKFNWYVDGVEVHNAKTKPCEEQYGSTYRCVSVLTVLHQDWLNGKEYKCKVSNKALPAPIEKTISKAKGQPREPQVYTLPPSRKEMTKNQVSLTCLVKGFYPSDIAVEWESNGQPENNYKTTPPVLKSDGSFFLYSKLTVDKSRWQQGNVFSCSVMHEALHNHYTQKSLSLSPGKGGGGQGGGGQGGGGQQVQLQESGPGLVKPSETLSLTCTVSGGSISSSSYFWGWIRQPPGKCLEWIGNIYYSGSSNYNPSLKSRVTISVDTSKNQFSLKLSSVTAADTAVYYCARLPRGDRDAFDIWGQGTMVTVSSGGGGQGGGGQGGGGQEIVMTQSPSSLSASVGDRVTITCRASQGISNYLAWYQQKPGKVPKLLIYAASTLQSGVPSRFSGSGSGTDFTLTISSLQPEDFATYYCQQSYSTPFTFGCGTKVEIK
chain 3: EIQMTQSPSSLSASVGDRVTITCRASQDISNYLNWYQQKPGKVPKLLIYYTSRLHSGVPSRFSGSGSGTDFTLTISSLQPEDVATYYCVQYAQFPLTFGCGTKVEIKRTVAAPSVFIFPPSDEQLKSGTASVVCLLNNFYPREAKVQWKVDNALQSGNSQESVTEQDSKDSTYSLESTLTLSKADYEKHKVYACEVTHQGLSSPVTKSFNRGEC
B2: MSLN-CDH3 T-cell engager molecule 6 (example to FIG. 2L) (bispecific antibody, human IgG1, kappa, lambda, N297G)
chain 1: not shown
chain 2: EVQLVESGGGLVQPGGSLKLSCAASGFTFNKYAMNWVRQAPGKGMEWVARIRSKYNNYATYYADAVKDRFTISRDDSKNTLYLQMNNLKTEDTAVYYCVRAGNFGSSYISYFAYWGQGTLVTVSSASTKGPSVFPLAPSSKSTSGGTAALGCLVKDYFPEPVTVSWNSGALTSGVHTFPAVLQSSGLYSLESVVTVPSSSLGTQTYICNVNHKPSNTKVDKKVEPKSCDKTHTCPPCPAPELLGGPSVFLFPPKPKDTLMISRTPEVTCVVVDVSHEDPEVKFNWYVDGVEVHNAKTKPCEEQYGSTYRCVSVLTVLHQDWLNGKEYKCKVSNKALPAPIEKTISKAKGQPREPQVYTLPPSRKEMTKNQVSLTCLVKGFYPSDIAVEWESNGQPENNYKTTPPVLKSDGSFFLYSKLTVDKSRWQQGNVFSCSVMHEALHNHYTQKSLSLSPGKGGGGQVQLQESGPGLVKPSETLSLTCTVSGGSISSSSYFWGWIRQPPGKCLEWIGNIYYSGSSNYNPSLKSRVTISVDTSKNQFSLKLSSVTAADTAVYYCARLPRGDRDAFDIWGQGTMVTVSSGGGGQGGGGQGGGGQEIVMTQSPSSLSASVGDRVTITCRASQGISNYLAWYQQKPGKVPKLLIYAASTLQSGVPSRFSGSGSGTDFTLTISSLQPEDFATYYCQQSYSTPFTFGCGTKVEIKSGGGGQEVQLVESGGGLVQPGGSLKLSCAASGFTFNKYAMNWVRQAPGKGMEWVARIRSKYNNYATYYADAVKDRFTISRDDSKNTLYLQMNNLKTEDTAVYYCVRAGNFGSSYISYFAYWGQGTLVTVSSGGGGQGGGGQGGGGQQTVVTQEPSLTVSPGGTVTITCGSSTGAVTSGNYPNWIQKKPGQAPRGLIGGTKFLAPGTPARFSGSLEGGKAALTLSGVQPEDEAEYYCVLYYSNRWVFGSGTKLTVL
chain 3: B1 chain 3
chain 4: QTVVTQEPSLTVSPGGTVTITCGSSTGAVTSGNYPNWIQKKPGQAPRGLIGGTKFLAPGTPARFSGSLEGGKAALTLSGVQPEDEAEYYCVLYYSNRWVFGSGTKLTVLGQPKAAPSVTLFPPSSEELQANKATLVCLISDFYPGAVTVAWKADSSPVKAGVETTTPSKQSNNKYAAKSYLSLTPEQWKSHRSYSCQVTHEGSTVEKTVAPTECS
B3: MSLN-CDH3 T-cell engager molecule 7 (example to FIG. 2K) (bispecific antibody, human IgG1, kappa, lambda, N297G)
chain 1: not shown
chain 2: EVQLVESGGGLVQPGGSLKLSCAASGFTFNKYAMNWVRQAPGKGMEWVARIRSKYNNYATYYADAVKDRFTISRDDSKNTLYLQMNNLKTEDTAVYYCVRAGNFGSSYISYFAYWGQGTLVTVSSASTKGPSVFPLAPSSKSTSGGTAALGCLVKDYFPEPVTVSWNSGALTSGVHTFPAVLQSSGLYSLESVVTVPSSSLGTQTYICNVNHKPSNTKVDKKVEPKSCDKTHTCPPCPAPELLGGPSVFLFPPKPKDTLMISRTPEVTCVVVDVSHEDPEVKFNWYVDGVEVHNAKTKPCEEQYGSTYRCVSVLTVLHQDWLNGKEYKCKVSNKALPAPIEKTISKAKGQPREPQVYTLPPSRKEMTKNQVSLTCLVKGFYPSDIAVEWESNGQPENNYKTTPPVLKSDGSFFLYSKLTVDKSRWQQGNVFSCSVMHEALHNHYTQKSLSLSPGKGGGGQGGGGQGGGGQQVQLQESGPGLVKPSETLSLTCTVSGGSISSSSYFWGWIRQPPGKCLEWIGNIYYSGSSNYNPSLKSRVTISVDTSKNQFSLKLSSVTAADTAVYYCARLPRGDRDAFDIWGQGTMVTVSSGGGGQGGGGQGGGGQEIVMTQSPSSLSASVGDRVTITCRASQGISNYLAWYQQKPGKVPKLLIYAASTLQSGVPSRFSGSGSGTDFTLTISSLQPEDFATYYCQQSYSTPFTFGCGTKVEIK
chain 3: B1 chain 3
chain 4: B2 chain 4

What was measured:
Assay in all cases: cell-based or functional assay
[1] = biological target: T1, MSLN (Mesothelin) on HCT116 or GSU cells (UniProt Q13421 37-598, limits assumed)
[2] = biological target: T2, CDH3 (Cadherin-3, P-Cadherin) on HCT116 or GSU cells (UniProt P22223 108-829, limits assumed)
[3] = biological target: T1, MSLN (Mesothelin) on HCT116 or GSU cells; remark: listed apart in the source
[4] = biological target: T2, CDH3 (Cadherin-3, P-Cadherin) on HCT116 …; remark: listed apart in the source

| Binder | EC50 HCT116 KO CDH3 [pM]; TDCC, CDH3 knocked out, MSLN left [1] | EC50 HCT116 WT [pM]; TDCC, cells double positive for CDH3 and MSLN [1] | EC50 HCT116 KO MSLN [pM]; TDCC, MSLN knocked out, CDH3 left [2] | EC50 HCT116 WT [pM]; TDCC, cells double positive for CDH3 and MSLN [2] | EC50 GSU KO CDH3 [pM]; TDCC, CDH3 knocked out, MSLN left [3] | EC50 GSU WT [pM]; TDCC, cells double positive for CDH3 and MSLN [3] | EC50 GSU KO MSLN [pM]; TDCC, MSLN knocked out, CDH3 left [4] | EC50 GSU WT [pM]; TDCC, cells double positive for CDH3 and MSLN [4] |
| --- | --- | --- | --- | --- | --- | --- | --- | --- |
| B1 | 8.07 pM | 0.039 pM | 2.25 pM | 0.039 pM | 10.5 pM | 0.128 pM | 175 pM | 0.128 pM |
| B2 | 0.58 pM | 0.002 pM | 0.27 pM | 0.002 pM | 0.89 pM | 0.024 pM | 11.6 pM | 0.024 pM |
| B3 | 25.5 pM | 0.04 pM | 1.5 pM | 0.04 pM | 54.6 pM | 0.261 pM | 95 pM | 0.261 pM |
